B1: DGL207 (bispecific antibody)
chain 1: QVQLVESGGGLVQAGGSLRLSCAASGRTFSKHAMGWFRQAPGKEREFVAAIDWSGGSTYYADSVKGRFTISRDNAKNTVYLQMDSLKPEDTAVYYCAADSYTDYAQLWLPELESEYDYWGQGTLVTVSSCPPCPAPEAAGAPSVFLFPPKPKDTLMISRTPEVTCVVVDVSHEDPEVKFNWYVDGVEVHNAKTKPREEQYNSTYRVVSVLTVLHQDWLNGKEYKCKVSNKALPAPIEKTISKAKGQPREPQVCTLPPSRDELTKNQVSLSCAVKGFYPSDIAVEWESNGQPENNYKTTPPVLDSDGSFFLVSKLTVDKSRWQQGNVFSCSVMHEALHNHYTQKSLSLSPGWSHPQFEK
chain 2: QLQLVESGGGLVQAGGSLRLSCAASRSITFSHNVMGWYRQAPGKQRELVASIGSGGSTNYVDSVKGRATISRDNAKKTVYLQMNSLKPEDTAVYYCGVVVGVYRGSLGQGTLVTVSSCPPCPAPEAAGAPSVFLFPPKPKDTLMISRTPEVTCVVVDVSHEDPEVKFNWYVDGVEVHNAKTKPREEQYNSTYRVVSVLTVLHQDWLNGKEYKCKVSNKALPAPIEKTISKAKGQPREPQVYTLPPCRDELTKNQVSLWCLVKGFYPSDIAVEWESNGQPENNYKTTPPVLDSDGSFFLYSKLTVDKSRWQQGNVFSCSVMHEALHNHYTQKSLSLSPGEPEA
B2: DGL209 (bispecific antibody)
chain 1: QVQLVESGGGLVQAGGSLRLSCAASGRTFSKHAMGWFRQAPGKEREFVAAIDWSGGSTYYADSVKGRFTISRDNAKNTVYLQMDSLKPEDTAVYYCAADSYTDYAQLWLPELESEYDYWGQGTLVTVSSPLAPCPPCPAPEAAGAPSVFLFPPKPKDTLMISRTPEVTCVVVDVSHEDPEVKFNWYVDGVEVHNAKTKPREEQYNSTYRVVSVLTVLHQDWLNGKEYKCKVSNKALPAPIEKTISKAKGQPREPQVCTLPPSRDELTKNQVSLSCAVKGFYPSDIAVEWESNGQPENNYKTTPPVLDSDGSFFLVSKLTVDKSRWQQGNVFSCSVMHEALHNHYTQKSLSLSPGWSHPQFEK
chain 2: QLQLVESGGGLVQAGGSLRLSCAASRSITFSHNVMGWYRQAPGKQRELVASIGSGGSTNYVDSVKGRATISRDNAKKTVYLQMNSLKPEDTAVYYCGVVVGVYRGSLGQGTLVTVSSPLAPCPPCPAPEAAGAPSVFLFPPKPKDTLMISRTPEVTCVVVDVSHEDPEVKFNWYVDGVEVHNAKTKPREEQYNSTYRVVSVLTVLHQDWLNGKEYKCKVSNKALPAPIEKTISKAKGQPREPQVYTLPPCRDELTKNQVSLWCLVKGFYPSDIAVEWESNGQPENNYKTTPPVLDSDGSFFLYSKLTVDKSRWQQGNVFSCSVMHEALHNHYTQKSLSLSPGEPEA
B3: DGL093 (bispecific antibody, IgG1)
chain 1: QVQLVESGGGLVQAGGSLRLSCAASGRTFSKHAMGWFRQAPGKEREFVAAIDWSGGSTYYADSVKGRFTISRDNAKNTVYLQMDSLKPEDTAVYYCAADSYTDYAQLWLPELESEYDYWGQGTQVTVSSDKTHTCPPCPAPEAAGGPSVFLFPPKPKDTLMISRTPEVTCVVVDVSHEDPEVKFNWYVDGVEVHNAKTKPREEQYNSTYRVVSVLTVLHQDWLNGKEYKCKVSNKALPAPIEKTISKAKGQPREPQVCTLPPSRDELTKNQVSLSCAVKGFYPSDIAVEWESNGQPENNYKTTPPVLDSDGSFFLVSKLTVDKSRWQQGNVFSCSVMHEALHNHYTQKSLSLSPG
chain 2: not shown
B4: DGL221 (bispecific antibody)
chain 1: QVQLVESGGGLVQAGGSLRLSCAASGRTFSKHAMGWFRQAPGKEREFVAAIDWSGGSTYYADSVKGRFTISRDNAKNTVYLQMDSLKPEDTAVYYCAADSYTDYAQLWLPELESEYDYWGQGTLVTVSSGGGGSGGGGSGGGGSGGGGSCPPCPAPEAAGAPSVFLFPPKPKDTLMISRTPEVTCVVVDVSHEDPEVKFNWYVDGVEVHNAKTKPREEQYNSTYRVVSVLTVLHQDWLNGKEYKCKVSNKALPAPIEKTISKAKGQPREPQVCTLPPSRDELTKNQVSLSCAVKGFYPSDIAVEWESNGQPENNYKTTPPVLDSDGSFFLVSKLTVDKSRWQQGNVFSCSVMHEALHNHYTQKSLSLSPGWSHPQFEK
chain 2: not shown
B5: DGL220 (bispecific antibody)
chain 1: B2 chain 1
chain 2: not shown
B6: DGL222 (bispecific antibody)
chain 1: QVQLVESGGGLVQAGGSLRLSCAASGRTFSKHAMGWFRQAPGKEREFVAAIDWSGGSTYYADSVKGRFTISRDNAKNTVYLQMDSLKPEDTAVYYCAADSYTDYAQLWLPELESEYDYWGQGTLVTVSSEKSYGPPCPPCPAPEAAGAPSVFLFPPKPKDTLMISRTPEVTCVVVDVSHEDPEVKFNWYVDGVEVHNAKTKPREEQYNSTYRVVSVLTVLHQDWLNGKEYKCKVSNKALPAPIEKTISKAKGQPREPQVCTLPPSRDELTKNQVSLSCAVKGFYPSDIAVEWESNGQPENNYKTTPPVLDSDGSFFLVSKLTVDKSRWQQGNVFSCSVMHEALHNHYTQKSLSLSPGWSHPQFEK
chain 2: not shown
B7: DGL945 (bispecific antibody, human IgG1, lambda)
heavy: EVQLLESGGGLVQPGGSLRLSCAASGFTFSDYYMTWIRQAPGKGLEWVSSISGGSTYYADSRKGRFTISRDNSENTLYLQMNSLRAEDTAVYYCARDFGVAGWFGQYGMDVWGQGTLVTVSSPLAPEVQLLESGGGLVQPGGSLRLSCAASGFTFSSYAMSWVRQAPGKGLEWVANINQDGSEKNYVDSMRGRFTISRDNSKNTLYLQMNSLRAEDTAVYYCAREFDYWGQGTLVTVSSASTKGPSVFPLAPSSKSTSGGTAALGCLVKDYFPEPVTVSWNSGALTSGVHTFPAVLQSSGLYSLSSVVTVPSSSLGTQTYICNVNHKPSNTKVDKKVEPKSCDKTHTCPPCPAPEAAGAPSVFLFPPKPKDTLYITREPEVTCVVVDVSHEDPEVKFNWYVDGVEVHNAKTKPREEQYNSTYRVVSVLTVLHQDWLNGKEYKCKVSNKALPAPIEKTISKAKGQPREPQVYTLPPSRDELTKNQVSLTCLVKGFYPSDIAVEWESNGQPENNYKTTPPVLDSDGSFFLYSKLTVDKSRWQQGNVFSCSVMHEALHNHYTQKSLSLSPG
light: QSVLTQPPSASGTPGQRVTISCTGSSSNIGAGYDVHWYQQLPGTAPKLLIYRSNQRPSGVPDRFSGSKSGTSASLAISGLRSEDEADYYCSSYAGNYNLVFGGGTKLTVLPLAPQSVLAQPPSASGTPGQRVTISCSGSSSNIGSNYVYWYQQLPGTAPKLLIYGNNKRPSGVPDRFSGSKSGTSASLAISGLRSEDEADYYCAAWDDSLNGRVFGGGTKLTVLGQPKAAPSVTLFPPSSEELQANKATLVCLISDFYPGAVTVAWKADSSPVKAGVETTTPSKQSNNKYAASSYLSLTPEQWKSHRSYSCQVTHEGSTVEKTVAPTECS
B8: DGL1146 (bispecific antibody, human IgG1, lambda)
heavy: B7 heavy with Y374M, T376S, E378T, M550L, N556S
light: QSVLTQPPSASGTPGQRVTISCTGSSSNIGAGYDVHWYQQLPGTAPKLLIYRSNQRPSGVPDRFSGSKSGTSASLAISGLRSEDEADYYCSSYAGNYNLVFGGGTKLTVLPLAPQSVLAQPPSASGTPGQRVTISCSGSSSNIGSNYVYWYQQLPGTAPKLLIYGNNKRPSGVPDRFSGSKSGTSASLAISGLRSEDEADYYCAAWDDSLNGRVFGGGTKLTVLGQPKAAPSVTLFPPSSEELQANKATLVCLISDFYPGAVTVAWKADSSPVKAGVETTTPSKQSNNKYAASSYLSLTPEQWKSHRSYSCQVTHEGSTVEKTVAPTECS
B9: DGL949 (bispecific antibody, human IgG1, lambda)
heavy: B7 heavy with T35N, R62V, Q106Y, A159W, N178K, Y228F
light: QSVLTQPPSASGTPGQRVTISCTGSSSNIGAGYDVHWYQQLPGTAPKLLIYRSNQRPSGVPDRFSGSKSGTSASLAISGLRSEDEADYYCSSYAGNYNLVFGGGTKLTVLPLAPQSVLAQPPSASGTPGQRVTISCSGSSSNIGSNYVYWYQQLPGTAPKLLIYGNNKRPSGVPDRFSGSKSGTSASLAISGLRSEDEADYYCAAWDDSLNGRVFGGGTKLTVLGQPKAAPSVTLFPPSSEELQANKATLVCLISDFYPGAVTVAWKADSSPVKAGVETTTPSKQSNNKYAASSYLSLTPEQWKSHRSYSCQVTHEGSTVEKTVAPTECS
B10: DGL947 (bispecific antibody, human IgG1, lambda)
heavy: B7 heavy with T35N, R62V, Y107F, A159W, N185Y, F226Y
light: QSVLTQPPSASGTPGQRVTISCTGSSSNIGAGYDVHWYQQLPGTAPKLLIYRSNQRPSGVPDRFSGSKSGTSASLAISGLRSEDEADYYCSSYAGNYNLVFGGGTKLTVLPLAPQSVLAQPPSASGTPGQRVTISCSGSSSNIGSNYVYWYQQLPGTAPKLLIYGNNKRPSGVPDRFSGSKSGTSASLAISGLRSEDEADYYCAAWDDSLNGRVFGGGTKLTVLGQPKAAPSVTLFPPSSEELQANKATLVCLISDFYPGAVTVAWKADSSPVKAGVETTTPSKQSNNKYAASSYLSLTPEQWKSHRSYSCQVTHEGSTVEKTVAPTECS

Numbering of substitutions follows the chain as printed.

ALK1 / BMPRII receptor pair (BMPR Type I receptor ALK1 and BMPR Type II receptor BMPRII) on cells, sequence (P37023 22-503 limits assumed, chain 1 of 2): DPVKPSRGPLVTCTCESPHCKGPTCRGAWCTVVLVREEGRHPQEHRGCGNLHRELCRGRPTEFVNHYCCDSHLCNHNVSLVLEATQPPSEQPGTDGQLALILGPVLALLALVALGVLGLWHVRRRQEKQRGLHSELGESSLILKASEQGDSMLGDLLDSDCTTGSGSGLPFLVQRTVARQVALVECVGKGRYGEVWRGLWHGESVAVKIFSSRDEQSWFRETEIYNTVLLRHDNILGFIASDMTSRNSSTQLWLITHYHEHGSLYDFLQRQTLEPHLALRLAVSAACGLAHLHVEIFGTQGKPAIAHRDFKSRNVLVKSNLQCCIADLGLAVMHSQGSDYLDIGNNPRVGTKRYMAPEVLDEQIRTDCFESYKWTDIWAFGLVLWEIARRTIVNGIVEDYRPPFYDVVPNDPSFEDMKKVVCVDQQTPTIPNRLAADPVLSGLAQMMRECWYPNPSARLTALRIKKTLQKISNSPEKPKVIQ
ALK1 / BMPRII receptor pair (BMPR Type I receptor ALK1 and BMPR Type II receptor BMPRII) on cells, sequence (Q13873 27-1038 limits assumed, chain 2 of 2): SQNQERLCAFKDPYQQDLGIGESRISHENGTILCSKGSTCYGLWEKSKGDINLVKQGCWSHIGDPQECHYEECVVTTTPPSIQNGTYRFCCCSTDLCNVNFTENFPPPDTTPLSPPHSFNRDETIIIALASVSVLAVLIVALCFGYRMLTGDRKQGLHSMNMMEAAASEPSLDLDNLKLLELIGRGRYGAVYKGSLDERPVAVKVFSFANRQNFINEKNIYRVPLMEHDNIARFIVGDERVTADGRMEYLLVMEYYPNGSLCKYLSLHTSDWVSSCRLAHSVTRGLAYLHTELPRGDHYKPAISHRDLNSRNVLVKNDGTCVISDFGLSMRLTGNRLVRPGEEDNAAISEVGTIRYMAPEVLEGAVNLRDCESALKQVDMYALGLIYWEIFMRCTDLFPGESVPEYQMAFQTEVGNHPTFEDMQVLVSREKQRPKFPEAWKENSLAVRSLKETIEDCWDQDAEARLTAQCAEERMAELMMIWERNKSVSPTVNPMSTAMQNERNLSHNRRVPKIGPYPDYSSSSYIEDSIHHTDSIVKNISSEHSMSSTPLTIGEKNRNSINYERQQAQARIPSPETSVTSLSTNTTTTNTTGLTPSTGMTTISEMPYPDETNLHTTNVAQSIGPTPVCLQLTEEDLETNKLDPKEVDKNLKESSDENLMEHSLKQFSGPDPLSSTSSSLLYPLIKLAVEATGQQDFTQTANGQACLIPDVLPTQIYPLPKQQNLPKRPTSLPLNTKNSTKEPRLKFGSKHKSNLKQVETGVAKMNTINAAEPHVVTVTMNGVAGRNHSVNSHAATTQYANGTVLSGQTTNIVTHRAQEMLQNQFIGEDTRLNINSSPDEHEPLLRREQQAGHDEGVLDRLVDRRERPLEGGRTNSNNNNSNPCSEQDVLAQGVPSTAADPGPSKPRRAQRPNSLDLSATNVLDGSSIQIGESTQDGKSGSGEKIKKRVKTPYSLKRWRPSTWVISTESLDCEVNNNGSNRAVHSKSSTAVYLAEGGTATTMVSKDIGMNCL

For the first assay, the target named is T1, IL-18 receptor (IL-18Rα and IL-18Rβ) on HEK-Blue IL-18 cells (UniProt Q13478 19-541; O95256 20-599, limits assumed).
T1 sequence (looked up) 1: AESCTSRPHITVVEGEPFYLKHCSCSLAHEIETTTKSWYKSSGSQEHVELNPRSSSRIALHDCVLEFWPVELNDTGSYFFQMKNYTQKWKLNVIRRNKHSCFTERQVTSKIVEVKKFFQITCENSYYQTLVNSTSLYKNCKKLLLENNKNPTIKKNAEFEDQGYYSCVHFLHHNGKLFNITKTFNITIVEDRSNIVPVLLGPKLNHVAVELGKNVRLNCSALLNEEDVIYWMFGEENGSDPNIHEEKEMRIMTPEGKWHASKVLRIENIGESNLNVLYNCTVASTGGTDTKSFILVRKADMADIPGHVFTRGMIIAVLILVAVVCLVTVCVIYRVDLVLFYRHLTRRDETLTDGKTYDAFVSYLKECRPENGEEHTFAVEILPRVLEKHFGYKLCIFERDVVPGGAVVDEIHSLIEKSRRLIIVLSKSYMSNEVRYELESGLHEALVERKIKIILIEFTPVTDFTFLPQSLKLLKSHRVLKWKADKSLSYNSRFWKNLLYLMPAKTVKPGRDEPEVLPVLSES
T1 sequence (looked up) 2: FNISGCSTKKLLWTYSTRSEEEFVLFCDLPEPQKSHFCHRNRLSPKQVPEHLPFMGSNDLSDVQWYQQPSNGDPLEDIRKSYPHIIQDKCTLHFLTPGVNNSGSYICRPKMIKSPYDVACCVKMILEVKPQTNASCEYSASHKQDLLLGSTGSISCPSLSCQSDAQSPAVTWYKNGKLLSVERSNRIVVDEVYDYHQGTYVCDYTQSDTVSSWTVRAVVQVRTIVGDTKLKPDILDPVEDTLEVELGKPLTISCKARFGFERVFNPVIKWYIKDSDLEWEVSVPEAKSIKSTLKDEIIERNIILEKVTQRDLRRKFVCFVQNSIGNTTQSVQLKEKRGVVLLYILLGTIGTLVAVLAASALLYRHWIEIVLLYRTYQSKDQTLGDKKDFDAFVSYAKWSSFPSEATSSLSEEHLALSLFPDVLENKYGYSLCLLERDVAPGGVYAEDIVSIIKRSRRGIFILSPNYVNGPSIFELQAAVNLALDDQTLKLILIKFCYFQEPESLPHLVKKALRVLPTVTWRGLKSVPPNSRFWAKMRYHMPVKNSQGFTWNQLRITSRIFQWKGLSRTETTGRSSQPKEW
Nature of the assay: cell-based or functional assay.
In the case of B1, the “HEK-Blue assay, % hu-IL-18” value was 98 % of human IL18 activity.

In the case of B2, the “HEK-Blue assay, % hu-IL-18” value is 89 % of human IL18 activity.

As to B3, the “HEK-Blue assay, % hu-IL-18” value is 65 % of human IL18 activity.

The target of another assay is T1, IL-18 receptor (IL-18Rα and IL-18Rβ) on …. Nature of the assay: cell-based or functional assay. This is another data set of the same source.
As for B4, the “HEK-Blue assay, % human IL18” value is 19 % human IL18.

For B5, the “HEK-Blue assay, % human IL18” value is 53 % human IL18.

In the case of B6, the “HEK-Blue assay, % human IL18” value turned out to be 44 % human IL18.

The target is the same in the next assay. Nature of the assay: cell-based or functional assay. This is another data set of the same source.
With B1, the “HEK-Blue assay, % human IL-18” value is 85 % of human IL18 activity.

For the molecule B2, the “HEK-Blue assay, % human IL-18” value is 65 % of human IL18 activity.

The next assay concerns the target ALK1 / BMPRII receptor pair (BMPR Type I receptor ALK1 and BMPR Type II receptor BMPRII) on cells (UniProt P37023 22-503; Q13873 27-1038, limits assumed). Nature of the assay: cell-based or functional assay.
In the case of B7, the “Agonist activity in DiscoverX assay, % Emax BMP9” value (“Agonist activity … % Emax BMP9” for short) worked out at 78 % Emax BMP9.

Consider B8, for which the “Agonist activity … % Emax BMP9” value came out at 78 % Emax BMP9.

Regarding B9, the “Agonist activity … % Emax BMP9” value was found to be 42 % Emax BMP9.

As for B10, the “Agonist activity … % Emax BMP9” value was 47 % Emax BMP9.

(Values after patent publication US20240383990A1 (DIAGONAL THERAPEUTICS, published 2024).)
